The values that follow come from US20230220115A1.

Experiment [1] addresses SARS-CoV-2 spike, N439K variant (pseudovirus RVP-703) (SARS-CoV-2) (UniProt P0DTC2). The experiment in a line: cell-based or functional assay.
In experiment [2] the target is SARS-CoV-2 spike, South African Δ3 B.1.351 variant (pseudovirus RVP-724) (SARS-CoV-2) (UniProt P0DTC2). Description: cell-based or functional assay.

Values joined by “and” are separate entries in the source; they are usually repeats but may differ in a detail not shown here. Identical values can stand only once.

Regarding “Imdevimab (biosimilar version) (antibody)”, in experiment [1], the EC50 (pM) Neutralization, N439K is 2260 pM and 2220 pM; the potency in pseudovirus neutralization against REGN10933 is 1000 fold. The EC50 (pM) Neutralization, South Africa B.1.351 in experiment [2] was 2.48 pM and 2.37 pM.
